A protein production outcome set (Wang et al. 2014)

Experiment: label from the status in PepcDB records
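Note: failed if final PepcDB status was selected cloned or expressed and not failed if soluble or beyond.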

Sequence	protein production
MSDTGNYLGPFLVNDFGDRYLYQVNRNAFNSIGSDSLYASTYGESLFAEYQLNIIIGTDSGLFPTYVVNKGIPSGSRYLFIELPEVIERLSEEGILKELPPEVIIATPDTWEEIATDLQINEYVFIDAVRVNESIASSDANLPEYRDISWNINLNVRTLVHETHASINCTQYILRQLENLAENRVAFSRTLVDTFKGRTAVILAGGPSLREALPWVRENRDRLVLIAVSRISKILQSEQIVPHLVATVDPQKVSFEVSREMLYFADMEESPVLVSSYHASPLLVGQWGGRSAYTDSLFPWSTPLNIETHLYTGPTVSNYALSIAMNMGCETIVLAGVDLCFSREGHTHAAGSAENKVGPDLGQLSPRIETNGGWLADTNHGYAHSLEILKLQAELAVSKGHRLYNISLGAAKIPLIEYRPPSEIDLPEDTISTSALIDKYLPPPTSKARLSHYRKIKKELERAQHKFKEILSLSQEALECTDGLFGRNGKERSFRHKVQMDKIERKLDRRYGDFSLLVKQFGLKKFLSILRTPKEEQEWTDEQIEKATRDYYQAYMAGTIQLLAVTNSALSRIEARIEEEKSSPDCDLFISQWLRDGQPGRGRFWLRNHPVTAQCLSEAILGKFRELDDQFTHLMTDEQTIRMELLEKGYDLKHIRSKARLLFRRGEREELEAMAAGIASHPDREKAEPYLYFINGLIAELQQEPNRAIECYQHLLVDPPHPTTEDALRQIASLAIAGNDVENALLALECLSRMSPAYLSPYGEILKALGRYDEAFDAFNRYLSIAPKDVGTLVTLGILCRDAGLADTARDLFARVLENDPTNRVALSQLEGLAAPSND	failed
ESILANLSAGVIAFSGDWHIRAANTSASRILGVDFSQLAEHRFPEWGGVMPAVASLVETVMQHADSDVESDWQTQLGYDTAQGERTLLVRGARLPEHSSDGYVLVFNDITE	failed
ARQRFIYIARHRSENIAYYAQALKIDGMVLKAESRRFYPLAEEASQLIGFTDVDDQQGSEGLERSFNSLLVGKNGKQIIRKDARGNVIENIRDEKQYDPQDVMLSID	failed
MALHNDGFINRQFVFGDFVLQFDGVLCHQEQQISVPPKELAVLTALLEAAGELVSKDALLDKVWPDGDVNEESLTRCIYALRRILLEDKSNRYIDTVYGKGYRFSRPVAVVSRPTASAQKCTMAILPFRTDGQLDSLELHAALVQCLSRYSPFGLVVMPATITRNCGDIADIIAMIDQLRPDYYLAGQVQQQGDSWLLRVELVRADGHQLVHHESIEIGPGEHIAALQTRLASLLPQRIPGLRWHHGNGSQLDSLDMAITYLNGRHELQQHTPSSLKRALALFLQCTSSQPGNALPYCSLAECYLALAQLGLFDQERALDGAQQAVDRAVALDAANPQALGLLALLSSLRGQQTIAEALFEQARMLAPDSIDIHYYHAWHLFLSDRIPLAQRSLDACLERDPSRIAASMLQLWLTYCEHRLDEAVALGKRQLCQYGQDHPVLQSMLGLMLAIQGQHAQAEELAAAVKASGEEAGLLAVNGCYIAHCRMGDAARPLLQDFLSRVDCRQVRSGLLPLILALHGRAGALHLLGQLESDRYLWLRASRQDPRLAGLFHPHLSEAA	failed
MEKFLTTTYKELNSSMYKFSKGLTLVLFSLALSACSSSPEDNDIAAKTSPDELYSQARTSMELGNYSKAVRSLEALDSRFPFGPHKTQVQLDLIYAYYKMDDVASGIANIDRFIRLNPTHPNIDYVYYMRGLVNMQADSYLFHDMLNIDRTDRDPKNAQDAFKDFDRLIKTYPNSKYAADAQKRMLSLKNRLAKYSIQVAEYYIKMNAWSAAAVRAQSVLETYPGTPSTERALEIMAEAYGELGQNQLKQNVLMVMQANFPNNEILSN	failed
MSALPSYTQNGQTITFAFAQPLQLTIVTPEIIRVFINRGEQGESYAIEGHKIQATDFTIESAGDHYIIRTSALTIHLDSERHLDTFDKDGNALITLEHHHHHH	not failed
EALQGLLGAGWWELCPDTAEILLASRLAASLHLPEDGARLNVQAWLELIHPADRGELSSRLQELKLGKPLLLNVRLHEPDPSAPQRWYRLQGQALGRGESQRLVGFMLDISD	failed
MKPALHTVTSAPALPAYVATGNECALFEHAWRHQLPVLLKGPTGCGKTRFVAHMAARLGLPLHTVACHDDLTAADLTGRYLLKGGDTVWTDGPLTRAVREGGICYLDEVVEARKDVTVVLHPLTDDRRILPLERTGEELAAPKSFMLVVSYNPGYQTLLKALKPSTRQRFVAIEFGFLAPEQEIAVVSAESGLPPDRVRPLVALAGRLRALRGHDLEEGVSTRLVVYCATLIAAGTPIADAVLAGMIEPLTDDSDVKAALLDVARAVIG	failed
MEYYNLILYLLVFGADMLIILQTYNEIKMWKTVKGNFVGKVSIIVPIKGIDTRLERNIESLLSQDYPYPYEVIYVVEKGDEVENILKKYNVKIVYSDFNCDSCSGKIRAQISGLLRASNDIIVFADSDTWYPRYWLRNLISPLDKYDTTTTFSWPFPSRITLSNLIRAGFWTLGFESQSLQSSRFLWGGSMALRREFFDNEVLDELSKEWCDDCTLTRIIKRRGGKIGFVMSAIPLNVYDENSLISWSSRQIITILAYSPRGARAYLVAGTFFALILIYSLVYLNIVTFTPYILWIVKNVIRGVKYPKQALIASLMTILAIPYALFLLVFNWNRREVYWRGKRYIVKPLREK	failed
MSTTQLKVKEINEELDSRPAVPPINDIRSYIAALEAHGVLHRVKAEVDWKFELAHISKVNEEQKGPALLYENVKGNTIPVFTSAFTTPERIAICLEQDPSLSMCQLSRKWMELTTKQMIKPTFVKNPPVMENIIEEKDVDLENFPAPWFYPDDGGRFFGTSGYLVTQDPDTGWTNLGTYRSQILGKNILGSQIISGKHGDFHMKKYQERGEKMPVAYVVGGDPILFLASSTLVSAQTDEYDVGGALRGRPIEVFKSDLTGLTLPANAEIIVEGWMDPEELMEEGPFGEYTGYYSGNKMKDYPKPVIRVKRIIHRNKPIFWSTTVGKPINDTHMVQSINRTATLWHDLETMKVPGIQSVYFPAAATGRFWVVASVKQMYPGHSNHVADAINGSTTGHYGVKGIIIVDHDIAADDMDRVWWALAVRFDPKRSTQIITRGRSTPLDPGLPIEARDVVSRIILDATIPYEWKNKPNEIFMDRTVLQKVSDRWNEYGFTGASPVAEMIPRLTRPEVKKK	failed
MKLKNPLDMHLHLRDNQMLELIAPLSARDFCAAVIMPNLIPPLCNLEDLKAYKMRILKACKDENFTPLMTLFFKNYDEKFLYSAKDEIFGIKLYPAGITTNSNGGVSSFDIEYLKPTLEAMSDLNIPLLVHGETNDFVMDRESNFAKIYEKLAKHFPRLKIVMEHITTKTLCELLKDYENLYATITLHHLIITLDDVIGGKMNPHLFCKPIAKRYEDKEALCELAFSGYEKVMFGSDSAPHPKDTKECCGCAAGVFSAPVILPVLAELFKQNSSEENLQKFLSDNTCKIYDLKFKEDKILTLEEKEWQVPNVYEDKYNQVVPYMAGEILKFQLKH	not failed
DLEFQKGVEQILNQYFNSELASGNTKYSEGVYAVVLNPNTGAVLSMAGLEHDLKTGEVSSNALGAVTEVFTPGSVVKGATLTAGWENGVLSGNQVLNDQPIQFAGSSPINSWFTNGSTPLTASQSLEYSSNTYMVQLALKLMGQDYHSGMTLSTDGYKEAMEKLRATYAQYGLGVSTGIDLPGESKGYTPEHYDPSNVLTESFGQFDNYTAMQLAQYAAAVANGGKRIAPHLVEGIYDNNKTGGLGNLVQSIDTKVLNNVSISSDDMGIIKEGFYNVVNGGSYATGKTLAKGASVPISAKTGTAEAYVTGDDGKSVYTSNLNVVAYAPSSNPQIAVAVVLPHETDLHGTTSHAITRDIINLYQKMYPMNQ	failed
MSEQNEKEGAVGSLERGLLIIRVLLDAPGPMSLAELAQELALGPSTVHRLLGTLTKLGQVVREPRGKRYLAAPQVLASLSFQHPITLVRLACRSAIEELRERTGETSAFVLFIGYERLVQDFVIGQRLLSPNYQTWLRSPMHGSASGKLLLSTVPENNWVDLIGHEPYQAHTPSTITTYEEMVAEIQAIRRQHYCVSKNEGYEGVSAFGYPVVVLGKTVGCITLTVESASLNESREAFLIQEMLRCVKSIQAVSGSLKLLHDWLF	failed
MNKNTWIIGFTLFAMFFGAGNLIFPTQLGLESGHFFWPAILAFALTGIGLPLLGVVVGALDKHGYIGSFNKISPRFSLIFLIIIYLTIGPLFAIPRTASTSFEMSVTPIAQNSGNLALFIFTVIYFLIVLYLCLNPNKMIDRIGSLLTPLLLITIVAMIIKGFVDFSGHSSNYGMTNAYHSNLSGFSQGFTQGYLTMDAIASIAFSMIVVNAIKTTGIQHADKIFKQTIIAGLIAAIALVFIYISLGYIGNHINIPSDTLKELKAKDQNIGTYLLTTMATKGFGTFGKYLLGIIVSLACLTTACGLIVSVSEYFHRILPKIPYKVFVIFFILVSFILANQGLNSVIKMSVPVLSVIYPVAITVILLILIARFIPTKRIAQQIPLIIVAIESILSLITTQGWIRISFIDDLPLKEYSLEWFPIAVVATLVGYMISYFVKQSNIVYQKE	failed
AADPVVVPANMEPLTIEGNRFVTLCIMIRTTPWEVSRDVKLHPRDEVDWHTLEGVRALREAFATNNPNGRLTWGFTMNALEDGRKNYREIRDYVVECQKKYGDEVTYFPGYFPAMYLPRERVNREMSEAIEIISKMVGNGYRPQSIMGGFLSADNLRYLAEKENIHVAHAVIWSQHNIDGGGADGSPSYPFYPSTEHFCKPAQGKSDFIDCVNLDGWTMDFICARRSGQTGHGIDGYNSRRGVGPIETYKGWGLDLGHREVMHTEAIHFDKGLELNGFGWVANIWEAQMVHEFGKDLICDAMKMWVTGTKERWPDTHFVTFGEFGELWRKQYKSNDDWNYRFVERGSGLGDSYNNLEIKWFMNKEFRLALLRDWHTKNSPAYVIDFTRYDLQAHEPADPSPEKPAKDWSLINKINQKALRPQDKPVLIDKLEKEDQDLIRKYYPELLK	not failed
MIGKHFIITGATSGLGFAITNELLQRGAHVTILARNIDKFNRIKENYFKPEHINVIKCDLMQRKDIESLQKFLNTPINGFIYSSGVGYFKSISEHSTREVVETYEVNLTNFNLLYKVIQPQLVKAAYIVGISSQAALVSQANAAHYGASKAGFSAVLNALRLEQPELKVLNVQPGPIDTPFQKNADPTLKYFKNYRHMMIQPQQLAKQIVEGIILNKIEINQPSWMQIMLKFYQLCPRTLEKLCPNLFKNKV	failed
MGSPASASHEALRHILDAGASMGSLQGLDEAQQQALYAIAHGAYEQGRYADALKMFCLLVACDPLEARYLLALAAAAQELGLYEHALQQYAAAAALQLDSPRPLLHGAECLYALGRRRDALDTLDMVLELCGSPEHAALRERAESLRRSYARALEHHHHHH	failed
MRTVLNILNFVLGGFATTLGWLLATLVSIVLIFTLPLTRSCWEITKLSLVPYGNEAIHVDELNPAGKNVLLNTGGTVLNIFWLIFFGWWLCLMHIATGIAQCISIIGIPVGIANFKIAAIALWPVGRRVVSVETAQAAREANARRRFE	failed
MGSVSNQQFAGGCAKAAEEAPEEAPEDAARAADEPQLLHGAGICKWFNVRMGFGFLSMTARAGVALDPPVDVFVHQSKLHMEGFRSLKEGEAVEFTFKKSAKGLESIRVTGPGGVFCIGSERRPKGKSMQKRRSKGDRCYNCGGLDHHAKECKLPPQPKKCHFCQSISHMVASCPLKAQQGPSAQGKPTYFREEEEEIHSPTLLPEAQN	failed
MSKILLTGASGYIGSHLKNKLKKDHEVIAISRNTHNKTDEENVTWKSADLFDLDEITKVMKDVDTAIYLVHSMMPSAKLTQASFEDMDALLADNFARAAQKQGVKHIVYMSGLIPENDELSAHLRSRLECEKILGDYGIPVSTLRAGLIIGAKGSSYPILKRLVKRLPAMVLPSWAYNKIAPVAIDDVIDGLAALVNRTPKDNEAIDITGPEVMNYKTLIQRTANVLDKRLPMLDLPIIPIIVSRYWVQLISNVPKEMVYPLMNSLTHDMVPHRKRVVSNLSVGNITFEDSVKRALREEQKTSKKKSDSKNSQSFGRMHQEIKDVRAITRFKIPEGYSIKDVTKEYAKFINNITLHLVKGTINEREFNMNLPFINKFILKMERDEADSTEDMVVYNIVGGDLAHSNDGGNARFEFRRIRNTNEGIIALQEYEPTLPWVVYKLTQAKAHKTVMNIFKNKMARLAQQKNVKDETYMSNRVTIGVTVASAFVIGSAVGFQLFKKHQIKKNTMSNAEL	failed
